The target of experiment [1] is recombinant NA (rNA) of avian A/turkey/Turkey/1/2005 (H5N1): 6xHis-tag, tetrabrachion tetramerization domain, two glycines, NA amino acids 51-449 (Staphylothermus marinus | influenza A virus, avian A/turkey/Turkey/1/2005 (H5N1)). As to the kind of experiment: SEC; […], Tris 50 mM, 150 mM NaCl pH 8, CaCl2 10 mM; […].
The target is the same in experiment [2]. Nature of the experiment: negative-stain TEM with single-particle 3D reconstruction.
The target in experiment [3] is recombinant NA (rNA) of swine A/California/07/2009 (H1N1): 6xHis-tag, tetrabrachion tetramerization domain, two glycines, NA amino acids 71-469 (Staphylothermus marinus | influenza A virus, swine A/California/07/2009 (H1N1)). As to the kind of experiment: SEC; […], Tris 50 mM, 150 mM NaCl pH 8, CaCl2 10 mM; […].

In the case of “recombinant NA (rNA) of avian A/turkey/Turkey/1/2005 (H5N1): 6xHis-tag, tetrabrachion tetramerization domain, two glycines, NA amino acids 51-449 (enzyme)”, the stoichiometry N in experiment [1] and in experiment [2] was 4 throughout. As for “recombinant NA (rNA) of swine A/California/07/2009 (H1N1): 6xHis-tag, tetrabrachion tetramerization domain, two glycines, NA amino acids 71-469 (enzyme)”, in experiment [3], the stoichiometry N worked out at 4.
